# Measurements taken from patent publication US20210214414A1 (Pfizer, published 2021).
# T1: Human SLIT2-N (human, UniProt O94813 31-1121, limits assumed)
# T1 construct: domain: SLIT2-N (N terminal fragment); Soluble analyte in SPR, d2-labelled in HTRF, overexpressed on HEK293 cells in flow cytometry; also called human SLIT2-N (N terminal fragment)
# T1 sequence (looked up): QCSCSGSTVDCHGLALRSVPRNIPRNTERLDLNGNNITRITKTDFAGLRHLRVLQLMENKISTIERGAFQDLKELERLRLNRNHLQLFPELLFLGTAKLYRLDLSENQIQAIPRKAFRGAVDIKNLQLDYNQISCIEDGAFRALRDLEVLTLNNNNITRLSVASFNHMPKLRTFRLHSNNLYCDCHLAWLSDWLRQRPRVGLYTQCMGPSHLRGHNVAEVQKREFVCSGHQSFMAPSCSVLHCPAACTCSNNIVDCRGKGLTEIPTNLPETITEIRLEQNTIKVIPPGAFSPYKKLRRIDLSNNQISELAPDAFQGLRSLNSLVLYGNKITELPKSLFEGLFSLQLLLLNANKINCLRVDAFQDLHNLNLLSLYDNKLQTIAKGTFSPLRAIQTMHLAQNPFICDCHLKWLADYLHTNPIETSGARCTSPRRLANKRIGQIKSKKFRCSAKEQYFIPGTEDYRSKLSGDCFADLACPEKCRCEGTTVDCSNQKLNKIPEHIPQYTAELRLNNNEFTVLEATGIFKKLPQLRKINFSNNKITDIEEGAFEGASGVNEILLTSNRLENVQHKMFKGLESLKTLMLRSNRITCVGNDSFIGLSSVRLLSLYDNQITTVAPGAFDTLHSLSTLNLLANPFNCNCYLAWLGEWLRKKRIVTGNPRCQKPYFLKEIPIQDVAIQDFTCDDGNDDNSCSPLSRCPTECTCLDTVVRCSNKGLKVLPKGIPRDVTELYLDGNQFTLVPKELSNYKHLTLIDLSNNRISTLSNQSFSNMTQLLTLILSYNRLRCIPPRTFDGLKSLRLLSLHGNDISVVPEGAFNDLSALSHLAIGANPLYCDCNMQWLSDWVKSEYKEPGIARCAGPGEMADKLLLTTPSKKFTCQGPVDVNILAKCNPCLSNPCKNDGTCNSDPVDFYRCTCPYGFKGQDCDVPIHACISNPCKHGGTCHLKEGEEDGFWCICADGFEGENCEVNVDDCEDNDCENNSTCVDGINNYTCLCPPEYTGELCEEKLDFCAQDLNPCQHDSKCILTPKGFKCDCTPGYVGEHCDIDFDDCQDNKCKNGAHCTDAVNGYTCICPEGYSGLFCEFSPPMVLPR
# T2: Rat SLIT3-N (rat, UniProt O88280 34-1119, limits assumed)
# T2 construct: domain: SLIT3-N; d2-labelled in the HTRF assay
# T2 sequence (looked up): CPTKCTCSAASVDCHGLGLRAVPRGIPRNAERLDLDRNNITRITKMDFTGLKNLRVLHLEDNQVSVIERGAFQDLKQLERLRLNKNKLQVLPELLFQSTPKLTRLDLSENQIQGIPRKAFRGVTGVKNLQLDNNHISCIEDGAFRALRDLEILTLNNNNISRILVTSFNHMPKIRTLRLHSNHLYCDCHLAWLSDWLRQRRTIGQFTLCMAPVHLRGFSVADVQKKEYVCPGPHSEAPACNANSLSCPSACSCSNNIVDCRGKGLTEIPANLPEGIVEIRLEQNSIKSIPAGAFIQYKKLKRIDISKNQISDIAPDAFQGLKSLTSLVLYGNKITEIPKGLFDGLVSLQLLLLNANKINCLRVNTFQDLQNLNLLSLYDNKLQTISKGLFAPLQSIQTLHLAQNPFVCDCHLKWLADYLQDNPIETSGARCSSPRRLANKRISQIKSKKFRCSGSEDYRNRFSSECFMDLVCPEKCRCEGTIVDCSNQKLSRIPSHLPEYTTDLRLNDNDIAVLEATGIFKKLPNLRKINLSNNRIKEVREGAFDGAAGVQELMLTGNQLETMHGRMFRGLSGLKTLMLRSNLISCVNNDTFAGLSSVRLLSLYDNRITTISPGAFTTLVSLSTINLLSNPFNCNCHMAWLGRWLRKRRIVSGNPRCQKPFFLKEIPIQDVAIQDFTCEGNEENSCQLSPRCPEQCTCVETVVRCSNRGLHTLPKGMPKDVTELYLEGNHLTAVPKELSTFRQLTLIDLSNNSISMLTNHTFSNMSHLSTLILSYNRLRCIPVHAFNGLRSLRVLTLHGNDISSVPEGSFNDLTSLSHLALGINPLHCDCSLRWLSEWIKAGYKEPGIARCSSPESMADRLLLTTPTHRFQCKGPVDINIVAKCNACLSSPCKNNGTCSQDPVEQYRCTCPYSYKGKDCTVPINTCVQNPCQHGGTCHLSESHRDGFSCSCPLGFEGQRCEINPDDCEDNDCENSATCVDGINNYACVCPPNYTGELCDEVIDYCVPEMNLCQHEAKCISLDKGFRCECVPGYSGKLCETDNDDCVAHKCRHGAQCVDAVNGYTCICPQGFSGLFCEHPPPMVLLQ
# B1: ROBO2-Fc 2.2 (Fc fusion)
# chain: SRLRQEDFPPRIVEHPSDVIVSKGEPTTLNCKAEGRPTPTIEWYKDGERVETDKDDPRSHRMLLPSGSLFFLRIVHGRRSKPDEGSYVCVARNYLGEAVSRNASLEVALLRDDFRQNPTDVVVAAGEPAILECQPPRGHPEPTIYWKKDKVRIDDKEERISIRGGKLMISNTRKSDAGMYTCVGTNMVGERDSDPAELTVFERGGSGGSEPKSSDKTHTCPPCPAPEAAGAPSVFLFPPKPKDTLMISRTPEVTCVVVDVSHEDPEVKFNWYVDGVEVHNAKTKPREEQYNSTYRVVSVLTVLHQDWLNGKEYKCKVSNKALPAPIEKTISKAKGQPREPQVYTLPPSREEMTKNQVSLTCLVKGFYPSDIAVEWESNGQPENNYKTTPPVLDSDGSFFLYSKLTVDKSRWQQGNVFSCSVMHEALHNHYTQKSLSLSPG
# notes: Labelled with Alexa Fluor 647 in the flow cytometry assay; also called ROBO-Fc 2.2; ROBO2-Fc 2.2-AF647
# What was measured:
# Human SLIT2-N = target: T1, Human SLIT2-N; test: flow cytometry, AF647-labelled ROBO2-Fc 2.2 on HEK293 cells overexpressing human SLIT2-N
# Procedure: After incubation, 150 μL of FACS buffer was added per well to wash the cells. After washing, cells were resuspended in buffer for data acquisition on a Fortessa Flow Cytometer.
# Rat SLIT3-N = target: T2, Rat SLIT3-N; test: HTRF competition: d2-labelled rat SLIT3-N binding to human ROBO2 on HEK293 cells; geometric mean, n=3
# Procedure: After incubation, fluorescence at 665 nm and 620 nm was measured on an Envision multilabel plate reader. The HTRF Ratio was calculated as follows: fluorescence at 665 nm/fluorescence at 620 nm×10,000. […] The IC₅₀ for each SLITx-N was determined using an 11-point, 4-fold dilution series with a top concentration of 4000 nM.
binder,measurement,setting,value
B1,EC50,Human SLIT2-N,8.6 nM
same,IC50,Rat SLIT3-N,3 nM
